# Target: microtubule polymers (Polymerised alpha/beta-tubulin heterodimers (one repeat given). Source is not printed (assay 'as previously described' in a cited paper); commercial mammalian brain tubulin is assumed, porcine taken a)
# Assay: co-sedimentation; microtubule pelleting assay; fraction of microtubule-bound Smc5 plotted against microtubule concentration, Kd by curve fitting to a hyperbola; 3 independent experiments
# Conditions: both partners purified
# Sequence of microtubule polymers (Polymerised alpha/beta-tubulin heterodimers (one repeat given). Source is not printed (assay 'as previously described' in a cited paper); commercial mammalian brain tubulin is assumed, porcine taken a) (chain, as listed by the source, chain 1 of 2): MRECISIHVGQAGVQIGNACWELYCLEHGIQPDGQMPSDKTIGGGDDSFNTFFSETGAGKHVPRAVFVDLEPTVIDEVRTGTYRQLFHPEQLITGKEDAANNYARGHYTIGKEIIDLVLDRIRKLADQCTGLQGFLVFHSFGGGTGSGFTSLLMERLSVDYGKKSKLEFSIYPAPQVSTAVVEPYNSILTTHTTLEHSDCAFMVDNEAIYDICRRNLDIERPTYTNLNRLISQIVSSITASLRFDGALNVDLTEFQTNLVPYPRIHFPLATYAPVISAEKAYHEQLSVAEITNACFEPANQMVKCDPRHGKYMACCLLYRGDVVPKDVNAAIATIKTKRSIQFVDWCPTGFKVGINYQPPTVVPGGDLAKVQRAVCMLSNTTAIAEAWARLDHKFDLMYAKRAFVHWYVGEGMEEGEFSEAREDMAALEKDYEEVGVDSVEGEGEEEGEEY
# Sequence of microtubule polymers (Polymerised alpha/beta-tubulin heterodimers (one repeat given). Source is not printed (assay 'as previously described' in a cited paper); commercial mammalian brain tubulin is assumed, porcine taken a) (chain, as listed by the source, chain 2 of 2): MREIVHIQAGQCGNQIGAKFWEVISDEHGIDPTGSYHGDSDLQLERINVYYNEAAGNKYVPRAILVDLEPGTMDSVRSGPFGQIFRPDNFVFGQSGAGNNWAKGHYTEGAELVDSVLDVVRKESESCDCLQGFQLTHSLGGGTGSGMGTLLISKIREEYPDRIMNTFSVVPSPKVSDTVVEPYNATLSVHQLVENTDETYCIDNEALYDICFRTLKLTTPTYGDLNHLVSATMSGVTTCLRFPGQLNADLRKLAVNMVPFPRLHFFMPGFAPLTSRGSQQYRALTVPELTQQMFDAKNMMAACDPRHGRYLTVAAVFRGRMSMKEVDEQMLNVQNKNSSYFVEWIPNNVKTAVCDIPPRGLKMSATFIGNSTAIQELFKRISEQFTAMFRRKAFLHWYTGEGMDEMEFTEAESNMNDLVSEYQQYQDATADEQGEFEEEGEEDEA
binder,measurement,value
"Smc5-2KE hinge domain (residues 215–885, K624E K631E) (domain or fragment, S. cerevisiae, UniProt Q08204 215-885, looked up, Smc5, S. cerevisiae, hinge domain construct, residues 215-885, with K624E and K631E; source: purified) LRELQGNEQSLQKDLDFKKAKIVHLRQESDKLRKSVESLRDFQNKKGEIELHSQLLPYVKVKDHKEKLNIYKEEYERAKANLRAILKDKKPFANTKKTLENQVEELTEKCSLKTDEFLKAKEKINEIFEKLNTIRDEVIKKKNQNEYYRGRTKKLQATIISTKEDFLRSQEILAQTHLPEKSVFEDIDIKRKEIINKEGEIRDLISEIDAKANAINHEMRSIQRQAESKTKSLTTTDKIGILNQDQDLKEVRDAVLMVREHPEMKDKILEPPIMTVSAINAQFAAYLAQCVDYNTSKALTVVDSDSYKLFANPILDKFKVNLRELSSADTTPPVPAETVRDLGFEGYLSDFITGDKRVMKMLCQTSKIHTIPVSRRELTPAQIKKLITPRPNGKILFKRIIHGNRLVDIEQSAYGSEQVFPTDVSIKQTNFYQGSIMSNEQKIRIENEIINLKNEYNDRKSTLDALSNQKSGYRHELSELASKNDDINREAHQLNEIRKKYTMRKSTIETLREKLDQLKREARKDVSQKIKDIDDQIQQLLLKQRHLLSKMASSMKSLKNCQKELISTQILQFEAQNMDVSMNDVIGFFNEREADLKSQYEDKKKFVKEMRDTPEFQSWMREIRSYDQDTKEKLNKVAEKYEEEGNFNLSFVQDVLDKLESEIAMVNHDES",fold reduction in binding affinity against wild-type Smc5,3 fold

# — publication PMC13470446, “Microtubule-dependent regulation of chromatin dynamics by the Smc5/6 complex” (iScience, 2026)
